{"source": "the RNAGym collection of RNA variant scans (doi:10.7554/elife.80360)", "parents": {"B1": {"name": "HDV Ribozyme (parent)", "chain": "GGCCGGCAUGGUCCCAGCCUCCUCGCUGGCGCCGGCUGGGCAACAUUCCGAGGGGACCGUCCCCUCGGUAAUGGCGAAUGGGACCCA"}}}
{"variants_of": "B1", "assay": "self-cleavage, relative activity (ratio to wild type); higher = more cleavage; co-transcriptional"}
{"variant": "U27C C30U", "self-cleavage": 0.426}
{"variant": "U27C C30G", "self-cleavage": 0}
{"variant": "U27C C30A", "self-cleavage": 0.415}
{"variant": "C26U U69A", "self-cleavage": 1.11}
{"variant": "C26U U69C", "self-cleavage": 1.12}
{"variant": "U27C C66A", "self-cleavage": 0.59}
{"variant": "U27C C66G", "self-cleavage": 0.692}
{"variant": "C26U C84A", "self-cleavage": 1.15}
{"variant": "C26U C84U", "self-cleavage": 1.05}
{"variant": "C26U A56C", "self-cleavage": 1.12}
{"variant": "C26U A56U", "self-cleavage": 1.12}
{"variant": "U27A G39A", "self-cleavage": 0.356}
{"variant": "U27A G39C", "self-cleavage": 0.0504}
{"variant": "U27C A45C", "self-cleavage": 0.237}
{"variant": "U27A G31A", "self-cleavage": 0.743}
{"variant": "U27A G31C", "self-cleavage": 0.378}
{"variant": "C26G G40U", "self-cleavage": 0.9}
{"variant": "C26G G40A", "self-cleavage": 0.912}
{"variant": "U27C C62G", "self-cleavage": 0.615}
{"variant": "U27C C62U", "self-cleavage": 0.851}
{"variant": "C26G C64U", "self-cleavage": 0.99}
{"variant": "C26G C64A", "self-cleavage": 0.554}
{"variant": "C26U C61G", "self-cleavage": 1.19}
{"variant": "C26U C36G", "self-cleavage": 0.162}
{"variant": "C26U C36A", "self-cleavage": 0}
{"variant": "U27C G55U", "self-cleavage": 0.426}
{"variant": "U27C G55C", "self-cleavage": 0.847}
{"variant": "U27C G55A", "self-cleavage": 0.533}
{"variant": "U27A A71G", "self-cleavage": 1.07}
{"variant": "U27A A71C", "self-cleavage": 1.03}
{"variant": "C26G G76C", "self-cleavage": 0.884}
{"variant": "C26G G76A", "self-cleavage": 0.914}
{"variant": "U27C U37A", "self-cleavage": 0.0519}
{"variant": "U27A A43G", "self-cleavage": 0.237}
{"variant": "C26U C63U", "self-cleavage": 0.943}
{"variant": "C26U C63A", "self-cleavage": 0.969}
{"variant": "U27A G29U", "self-cleavage": 0}
{"variant": "U27A G29C", "self-cleavage": 0.158}
{"variant": "U27C C44G", "self-cleavage": 0.277}
{"variant": "U27C C44A", "self-cleavage": 0.447}
{"variant": "U27A G40A", "self-cleavage": 0.886}
{"variant": "U27A G40U", "self-cleavage": 0.793}
{"variant": "U27A G38U", "self-cleavage": 0.0426}
{"variant": "U27A G38A", "self-cleavage": 0}
{"variant": "U27C C57G", "self-cleavage": 0.639}
{"variant": "U27C C57U", "self-cleavage": 0.707}
{"variant": "U27A A56U", "self-cleavage": 0.923}
{"variant": "U27A A56C", "self-cleavage": 0.914}
{"variant": "U27C G68C", "self-cleavage": 0.511}
{"variant": "U27C G68A", "self-cleavage": 0.697}
{"variant": "U27A A77C", "self-cleavage": 0}
{"variant": "U27A A77U", "self-cleavage": 0.332}
{"variant": "C26G G29U", "self-cleavage": 0.119}
{"variant": "C26G G29A", "self-cleavage": 0.208}
{"variant": "C26G U60C", "self-cleavage": 1.31}
{"variant": "C26G U60A", "self-cleavage": 1.05}
{"variant": "U27G A77C", "self-cleavage": 0.277}
{"variant": "C26U G54A", "self-cleavage": 0.774}
{"variant": "C26U G54U", "self-cleavage": 1.07}
{"variant": "U27A U79C", "self-cleavage": 0.201}
{"variant": "C26G G59A", "self-cleavage": 0.903}
{"variant": "C26G G59C", "self-cleavage": 0.87}
{"variant": "U27C G39U", "self-cleavage": 0.467}
{"variant": "U27C G39A", "self-cleavage": 0.175}
{"variant": "C26U U47A", "self-cleavage": 1.16}
{"variant": "U27A A83C", "self-cleavage": 0.739}
{"variant": "C26U C32U", "self-cleavage": 0.799}
{"variant": "C26U C32A", "self-cleavage": 0.256}
{"variant": "C26U C32G", "self-cleavage": 0.125}
{"variant": "C26U C48G", "self-cleavage": 1.07}
{"variant": "C26U C48U", "self-cleavage": 1.01}
{"variant": "C26U C48A", "self-cleavage": 0.917}
{"variant": "U27C A83G", "self-cleavage": 0.727}
{"variant": "U27C A83C", "self-cleavage": 0.554}
{"variant": "U27C A83U", "self-cleavage": 0.465}
{"variant": "U27C C58U", "self-cleavage": 0.539}
{"variant": "U27C C58A", "self-cleavage": 0.458}
{"variant": "C26U G53A", "self-cleavage": 1.16}
{"variant": "C26U G53C", "self-cleavage": 1.04}
{"variant": "C26U G53U", "self-cleavage": 1.22}
{"variant": "U27C U79C", "self-cleavage": 0.101}
{"variant": "U27C U79G", "self-cleavage": 0.32}
{"variant": "U27C U79A", "self-cleavage": 0.511}
{"variant": "C26U A70C", "self-cleavage": 1.08}
{"variant": "U27C A77C", "self-cleavage": 0.192}
{"variant": "U27C C84U", "self-cleavage": 0.65}
{"variant": "U27C C84A", "self-cleavage": 0.923}
{"variant": "U27C G28U", "self-cleavage": 0.0678}
{"variant": "U27C G28A", "self-cleavage": 0.135}
{"variant": "C26G C75U", "self-cleavage": 0.262}
{"variant": "C26G C75G", "self-cleavage": 0.227}
{"variant": "U27A C30U", "self-cleavage": 0.677}
{"variant": "U27A C30A", "self-cleavage": 0.525}
{"variant": "C26G U47A", "self-cleavage": 0.87}
{"variant": "C26G U47G", "self-cleavage": 1.08}
{"variant": "C26G U47C", "self-cleavage": 0.95}
{"variant": "U27A A45U", "self-cleavage": 0.458}
{"variant": "U27A A45G", "self-cleavage": 0.745}
{"variant": "U27A C48G", "self-cleavage": 1.09}
{"variant": "U27A C48A", "self-cleavage": 0.831}
{"variant": "C26G G73C", "self-cleavage": 0.492}
{"variant": "C26G G73A", "self-cleavage": 0.57}
{"variant": "C26U C44U", "self-cleavage": 1.01}
{"variant": "C26U C44A", "self-cleavage": 1.03}
{"variant": "U27C G59A", "self-cleavage": 0.742}
{"variant": "U27C G59C", "self-cleavage": 0.751}
{"variant": "C26U C41U", "self-cleavage": 1.06}
{"variant": "U27A U37A", "self-cleavage": 0.138}
{"variant": "U27A U37C", "self-cleavage": 0.578}
{"variant": "U27A U37G", "self-cleavage": 0.119}
{"variant": "C26U A51G", "self-cleavage": 0.95}
{"variant": "U27C G34A", "self-cleavage": 0.289}
{"variant": "U27A U72G", "self-cleavage": 0.739}
{"variant": "U27A U72A", "self-cleavage": 0.266}
{"variant": "U27C C85A", "self-cleavage": 0.978}
{"variant": "U27C C85U", "self-cleavage": 1.04}
{"variant": "U27A G52A", "self-cleavage": 0.844}
{"variant": "U27A G52C", "self-cleavage": 0.914}
{"variant": "U27C G50C", "self-cleavage": 0.858}
{"variant": "U27C U60C", "self-cleavage": 0.677}
{"variant": "U27C U60G", "self-cleavage": 0.875}
{"variant": "U27C G38A", "self-cleavage": 0.0978}
{"variant": "U27C G38U", "self-cleavage": 0.131}
{"variant": "C26U A78U", "self-cleavage": 0.743}
{"variant": "C26U A78G", "self-cleavage": 1.07}
{"variant": "U27A U47G", "self-cleavage": 0.89}
{"variant": "U27A C58U", "self-cleavage": 0.937}
{"variant": "U27A C58A", "self-cleavage": 0.997}
{"variant": "U27A U60C", "self-cleavage": 1.21}
{"variant": "U27A C36U", "self-cleavage": 0.538}
{"variant": "U27A C36A", "self-cleavage": 0}
{"variant": "C26G U37A", "self-cleavage": 0.213}
{"variant": "C26G G38C", "self-cleavage": 0.151}
{"variant": "C26G G38U", "self-cleavage": 0.435}
{"variant": "C26U U72C", "self-cleavage": 0.906}
{"variant": "C26U U72A", "self-cleavage": 0.731}
{"variant": "U27C U46C", "self-cleavage": 0.138}
{"variant": "U27C U46G", "self-cleavage": 0.332}
{"variant": "U27C G29U", "self-cleavage": 0.145}
{"variant": "U27A U65A", "self-cleavage": 0.95}
{"variant": "U27A A70U", "self-cleavage": 0.985}
{"variant": "U27A U46G", "self-cleavage": 0.369}
{"variant": "U27A U46C", "self-cleavage": 0.733}
{"variant": "C26U C75A", "self-cleavage": 0.154}
{"variant": "U27A A78U", "self-cleavage": 0.256}
{"variant": "C26U G73U", "self-cleavage": 0.502}
{"variant": "U27C G80C", "self-cleavage": 0.101}
{"variant": "U27A C32U", "self-cleavage": 0.923}
{"variant": "U27A C32G", "self-cleavage": 0.0545}
{"variant": "U27A C32A", "self-cleavage": 0.0604}
{"variant": "C26G G82C", "self-cleavage": 0.499}
{"variant": "U27C C63G", "self-cleavage": 0.639}
{"variant": "U27C C63A", "self-cleavage": 0.883}
{"variant": "U27A C63U", "self-cleavage": 0.813}
{"variant": "C26U C64G", "self-cleavage": 1.1}
{"variant": "C26U C64A", "self-cleavage": 0.979}
{"variant": "U27C G40U", "self-cleavage": 0.7}
{"variant": "U27C U69C", "self-cleavage": 0.931}
{"variant": "C26U G76U", "self-cleavage": 0.963}
{"variant": "C26U G76A", "self-cleavage": 1.04}
{"variant": "C26U G52C", "self-cleavage": 0.9}
{"variant": "U27A G80C", "self-cleavage": 0.469}
{"variant": "U27A C64U", "self-cleavage": 0.855}
{"variant": "U27C G53U", "self-cleavage": 0.746}
{"variant": "C26U A45G", "self-cleavage": 0.831}
{"variant": "C26U G34C", "self-cleavage": 0.224}
{"variant": "U27A G81U", "self-cleavage": 0.502}
